Tests used:
[1] = target: fusion protein consisting of the extracellular region of the human Fas antigen and the extracellular region of the mouse interleukin 3 receptor (encoded by phFas-AIC2) (human; mouse) (UniProt P25445); assay: ELISA; plate coated with COS-1 supernatant holding the human Fas ECD-mouse IL-3 receptor ECD fusion; detection with peroxidase-labelled rat anti-mouse IgM; PBS blank 0.104
[2] = target: human Fas antigen on human lymphocyte cell line HPB-ALL (human) (UniProt P25445); assay: cell-based or functional assay

OD405 - OD492 (OD405 - OD492) [1]	ED50 [2]	Substance	OD590 - OD620 (MTT assay, viable HPB-ALL cells) (OD590 - OD620) [2]	activity (cytotoxicity, ED50 test) relative to CH11 and supernatant [F] [2]
0.109		CH11 H chain alone, COS-1 culture supernatant of cells transfected with pHEX126	0.876	
0.107		CH11 J chain alone, COS-1 culture supernatant of cells transfected with pJEX004	0.883	
0.135		CH11 L chain alone, COS-1 culture supernatant of cells transfected with pLEX004	0.887	
0.445	0.0212 µg/mL	mouse anti-human Fas monoclonal antibody CH11 (IgM), purified from hybridoma culture supernatant		
0.202	0.0229 µg/mL	recombinant CH11 H chain + L chain + J chain product in COS-1 culture supernatant [F] (pHEX126, pLEX004 and pJEX004) (antibody)	0.242	
0.33	0.0045 µg/mL	recombinant CH11 H chain + L chain product in COS-1 culture supernatant [E] (pHEX126 and pLEX004), without J chain (antibody)	0.176	5 fold

Source: patent EP0799891A1
